Source: the supplement of paper PMC10724198
± gives the standard deviation of the averaged measurements.

Test system: Saccharomyces cerevisiae
Assay: protein stability index of tFT-peptide fusion (C-terminal peptide) (PSI (0-1 scale)); higher = more stable (slower turnover)
Details: genetic background: wild type; temperature: 30 C
Experimental: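 Multiplexed protein stability (MPS) profiling in S. cerevisiae. Random 12-aa peptides (tFT-X12 library) are fused to the C-terminus of a sfGFP-mCherry tandem fluorescent timer, after mCherry and a GGGS linker. Cells are FACS-sorted into 8 mCherry/sfGFP bins and deep-sequenced. The protein stability index (PSI) is the read-weighted bin average, scaled from 0 (unstable) to 1 (stable). Only peptides with >10 reads are reported; cells were grown at 30 °C in SC-His with glucose.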
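Also: PSI is a weighted mean of sequencing reads over stability bins, variants kept only with over 10 reads, mCherry proximal and sfGFP distal, peptide attached via GGGS linker.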

Sequence | protein stability index
LVFREISSRHEI | 0.711 ± 0.018
CIGVGTVRGSHG | 0.673 ± 0.067
PLPVRPGQHRIL | 0.6918 ± 0.0024
RKIQNASLGRGA | 0.7 ± 0.037
ATTVAIVFCRPA | 0.6165 ± 0.0039
ISIRKNSNQETM | 0.692 ± 0.14
IDSWWLPSDLKV | 0.835 ± 0.017
PPSPPAVISAGL | 0.716 ± 0.066
GSWGEGGVAVGG | 0.653 ± 0.032
GAGAAVHRAAPG | 0.672 ± 0.029
FFVGGVTDLFVS | 0.724 ± 0.0092
HRVPRLRGQNPP | 0.635 ± 0.0073
WGRGGSRGSWGA | 0.716 ± 0.014
FPGSLVPVASVP | 0.71 ± 0.089
RARRYNRQSTPT | 0.702 ± 0.023
GERSGVSIRHEG | 0.726 ± 0.016
DEVRDTSGGTWA | 0.642 ± 0.02
PLSLIAFAISPC | 0.637 ± 0.015
YLRACDPPAVHR | 0.67 ± 0.024
PVGFPLPCPFFT | 0.688 ± 0.035
SRQDLPKYVYLY | 0.508 ± 0.016
GGKWGVAGGGPW | 0.738 ± 0.074
RKSSAGLERATG | 0.685 ± 0.018
LGCGVSLWVVPG | 0.712 ± 0.034
MGAAWNYANFGL | 0.7011 ± 0.0059

Sequence | protein stability index
MVTRSLLLLLHG | 0.599 ± 0.053
LVGGGEGWVVLG | 0.651 ± 0.09
RWRECVVWGVWG | 0.663 ± 0.0096
EVDRGSNWEGRL | 0.66 ± 0.011
QNIRTELTSPRV | 0.6596 ± 0.0016
PRSPPSPPPPPS | 0.641 ± 0.1
QLRPLSPLPPQP | 0.738 ± 0.029
GGWPLSPSFGWG | 0.571
RPPPHYPHHTAS | 0.673 ± 0.018
LLLSRLSPPPPS | 0.716 ± 0.021
GGCVCGPRVLGV | 0.67 ± 0.031
AVAHLSCTSRFG | 0.6944 ± 0.0037
GVVVRGGEWGLD | 0.675 ± 0.061
RSYFGLACPSVS | 0.626 ± 0.03
FPFGICMISCDG | 0.628 ± 0.02
PPLAPDPPPRVY | 0.654 ± 0.013
FFDKLEIRALVV | 0.6302 ± 0.00098
LFFRFGRWFLGF | 0.671 ± 0.027
RGFKEPLSFKAG | 0.613 ± 0.059
PPPPPPRRSSPP | 0.681 ± 0.069
NGMVDDQSEVNR | 0.682 ± 0.074
GPALCPVWATYG | 0.591 ± 0.0086
KKYNRNRIKKAR | 0.7 ± 0.08
PFYLPPSTPPLL | 0.739 ± 0.0076
FKLVGRHLHSFD | 0.652 ± 0.06

Sequence | protein stability index
WVSAMGIPRVVG | 0.574 ± 0.05
SSSLLFVLGPSW | 0.715 ± 0.034
IRRKLINYIKKG | 0.619 ± 0.066
RFCVTASDLREF | 0.751 ± 0.057
GGGAGGRQGCGG | 0.771 ± 0.027
GENPEPRHGRGN | 0.698 ± 0.022
SALTSLAFGSFE | 0.704 ± 0.046
GTDRRGRDAPHS | 0.586 ± 0.031
DSFLLSSKICWT | 0.745 ± 0.0069
SFGSAANSRAYI | 0.749 ± 0.042
FLVNVIRSCKGE | 0.685 ± 0.059
AAWPYKYYLAHI | 0.617 ± 0.061
RRLSRPPNLSRH | 0.676 ± 0.021
DRWGGRGDYRCI | 0.72 ± 0.019
SRPRSPPPPPIT | 0.819 ± 0.054
GRRGGGTGAPSR | 0.65 ± 0.05
EGGWRYNRNGPN | 0.687 ± 0.025
RGPELDRRLPLC | 0.663 ± 0.03
LVSLPISFPASL | 0.692 ± 0.035
AWQGRVEGGDGA | 0.665 ± 0.024
DLRVSLLSHLSL | 0.679 ± 0.11
GSTRHFMSEKRE | 0.743 ± 0.079
PKPDFPGRHLSR | 0.654 ± 0.093
